# From the supplement of paper PMC12042874
# ± gives the uncertainty stated by the source.
# Test: amyloid nucleation score (Sup35N fusion, yeast selection) (log enrichment); library NNK3; higher = more nucleation; inactive = no reads after selection
# Method in brief: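 Plasmid inserts were Illumina-sequenced at input and output from psi-negative yeast expressing Sup35N fused to peptides of 20 random codons. The yeast were induced with 100 μM copper sulfate for 24 hours and grown 7 days at 30°C on medium lacking adenine and uracil, and sequences with under 100 input reads were excluded. Nucleation score is the DiMSum log enrichment of output over input reads, centred on the mode score of non-aggregating sequences.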
row,Substance,amyloid nucleation score
1,SRFRGAI,inactive
2,VRLRVEYAKSEWKMIFGEFY,inactive
3,NNSGLSFFSNLGWVLHGDLV,inactive
4,LFSMEKGEYGNRRGYAVYFL,1.74 ± 0.084
5,FIRFWASVSTNCRLPFLLNR,inactive
6,YACETVMSFVYMITFIRYLR,inactive
7,AIMLVSLC,inactive
8,QREGSNCAILCLL,inactive
9,NSYIFVQALMTFGDLTWAFH,2.34 ± 0.073
10,GGCGGVKHAHYNTIEY,inactive
11,LLPDRFANPGETWVLNYKLM,inactive
12,PVSII,inactive
13,GRLINYSILKMVTVWFYLL,inactive
14,LLSFLTVRLCVFRTYFW,inactive
15,IAVCHLFLQYLCSRSTFMTL,inactive
16,ELSACCYAMSWMVDCVRASL,1.34 ± 0.1
17,RKRYFWNHAEISILKTSSSW,inactive
18,FRVTY,inactive
19,CELLCFTGLSDYNTGSGVRR,inactive
20,FFFYFLRFSDFNWFINWLIS,inactive
21,NLKRTQLFLHLFRMGCFHT,inactive
22,SDLCRSMSNQFSELSSNDFV,inactive
23,RFKMAYFKNTAYLFNNANSV,inactive

row,Substance,amyloid nucleation score
1,VKLSL,inactive
2,NKGMPGPHGANSRYTGVDVG,inactive
3,YSEYMVTNRKVSAGHTARWD,inactive
4,NWSVHTGIDKVKADDGEFQL,inactive
5,GPYHELCNHRL,inactive
6,VAPLAILDRKSKSLVGNNMA,inactive
7,NRDVLQKPLIIAICQSFCSQ,2.32 ± 0.083
8,NLHAEWMDGSTGRKIAWNNG,inactive
9,ETPSALCILYVFYCHAYWSH,inactive
10,TFFFVVGHSNDEVYSCVKTV,1.12 ± 0.11
11,HSLTENAKREIT,inactive
12,CCCTNDMWTTGPNCS,-0.432 ± 0.76
13,GSVGFIIKGWWSTE,0.621 ± 0.26
14,NMVSFWN,inactive
15,NSVVSGFLGHVLVGRRCGHR,inactive
16,KNGIITLSSIT,inactive
17,FCCHYSKLFRR,0.641 ± 0.41
18,LWLMVFWKINGNMLGCHPEM,inactive
19,VLQLDL,inactive
20,RDLVPLDDRA,inactive
21,IVRWGSQSGVYRMPIEAWKW,inactive
22,FSSSPR,inactive
23,VMQQYLYNLCCL,2.83 ± 0.052

row,Substance,amyloid nucleation score
1,YLSGSDIGFGYERCKIDSGV,inactive
2,SCVTHLPTVT,inactive
3,YDLRAALKV,inactive
4,EGGMTTFYFC,2.13 ± 0.093
5,RKNVELANPLFTSPWLNIMY,inactive
6,DTLPHAVKLIEKM,inactive
7,GFRRRSMDALSVTVDSVVAP,inactive
8,SSGLFLSISLNDGWSRGVWS,2.77 ± 0.076
9,MEINAVPD,inactive
10,ELGHSKSTMFNVYYVVWSRC,inactive
11,MVNMTI,inactive
12,IHYRANRCRRYCAFIYKAN,inactive
13,SDCKMISHFGEVINILSYKI,inactive
14,FSFYFQDNTIKRWEAIED,inactive
15,LHLNGAYMAFLIVMSCMHFS,inactive
16,YARYMYYATNKINNWVVLKP,inactive
17,GKDKLEGKEGGVSCDGNLRP,inactive
18,TDIFKSFIRNMNLVWFRVMT,inactive
19,RCTELVKAISLVVVYIYDEG,inactive
20,FWGFAFPFTSHGGPKNLEES,inactive
21,ILGIRYVIRINFLTRVRIHN,inactive
22,CSQIPLHKLTMCMLY,inactive
23,WCDDFWLYVVLGYGLCFVLC,inactive

row,Substance,amyloid nucleation score
1,FCDALMIVTEFGEGLWARWR,inactive
2,SKCVGISLRALVYYGHSQVT,inactive
3,RLFFVSMAF,inactive
4,VTFIRQGLEIVSVVLSICKE,inactive
5,TGVFDFRRVVLLVSHSEV,inactive
6,IEQPY,inactive
7,LLRSCYVSYALNGYSTTFRD,inactive
8,RESVTSPILILSWEGISRCH,inactive
9,GLVVWKNGINWLSEGVTIAR,0.567 ± 0.25
10,KDSYMSCYKPRYVLPRRIIQ,inactive
11,LVIWYLQSLYSPGINCQDLR,inactive
12,LHGWFLNLLIFYAMRLRSVL,inactive
13,MNWGYILLYVWDVSKNRYGF,inactive
14,LSYGFLGDRYVLHGCLMYFP,inactive
15,PNPLRLNNIRRVLARKSKVS,inactive
16,LPAHTL,inactive
17,VIYRSYLRIDSFIGRGGLII,0.567 ± 0.26
18,FWGWLARTNLKILSILFNLI,inactive
19,LLIFYGKLMIWGSGHSDTFR,inactive
20,IALSVDYLRFIFKNHSA,-0.464 ± 0.66
21,FKSSVKGEGYGKMGFQLLPF,inactive
22,RGSWSYQILWINTVRW,-0.347 ± 0.53
23,VTSESSSMGLTLSF,inactive

row,Substance,amyloid nucleation score
1,MLFYCFYINGRAARTYKRYS,inactive
2,KSVRNTAHLWHCVLTIYVYL,inactive
3,EFGLRWMS,0.447 ± 0.34
4,LLDNITLFVWNYMVSSEWKL,inactive
5,SNVSVHGMIESMLWLSTRDI,inactive
6,FTAWTLLLSGMFVIASANMA,inactive
7,GWNSRM,inactive
8,LDGMYHTVRICNSCF,inactive
9,LSYQDVWGSYGICEGSVWYS,inactive
10,LYRPCLWSDWRT,inactive
11,SLMSSRSCVTRTLLARQVYL,inactive
12,KGTMVQTVKSVWLGEHIVLA,inactive
13,RYFTLISYVVVVEVSLEKPW,inactive
14,IEAMRNRWSFKY,inactive
15,MNVGAIGKSSFMY,inactive
16,YVAVGKKLNHRSSSSLSRFF,inactive
17,NFYYSSAFLSVLFPFSACFP,2.22 ± 0.084
18,MSSSIILWNFCNMDRCSLVG,2.23 ± 0.087
19,PVQQSGLVWRLGAIVVC,inactive
20,GGTAHNIGCVSRLVMPARGI,inactive
21,VSAAYLRTVRQ,inactive
22,SSRVVAWLSFNGSIICLFTF,inactive
23,TWKHFFIALLRRSNY,inactive

row,Substance,amyloid nucleation score
1,RQGGVNRNSVSMHSHGYRDC,inactive
2,CCWRNLYSFLRKGSYSRCM,inactive
3,VHTMEEVA,inactive
4,NSGTKQTLGYSSFRD,inactive
5,GYDGRGSHAL,inactive
6,EVYDLESGVSITYMCMCVVL,inactive
7,YWLDLYSKCLSSSVEISLGI,inactive
8,IRYYFRHLG,-0.203 ± 0.36
9,IGLRLVATLIDLRNADIGYG,inactive
10,AVMYSCQYRDKWVEVAMVTS,inactive
11,YISHWASGSFIVNYIERWMR,0.707 ± 0.29
12,DFLVVYNAMCDKELVDTGEI,inactive
13,CSRSSLLLVDWPMVGSDKLL,inactive
14,PRYGEVGATSFSDVTETML,inactive
15,VLGYYAKGDRSSWSRGYSY,0.194 ± 0.87
16,CHHYHMWLRFGSVEWIRGMD,-0.052 ± 0.38
17,HMLLVD,inactive
18,IYWDTRLGFCAYAKC,inactive
19,LYGGTAFLLSFCVAE,inactive
20,SQKGCRH,inactive
21,VHGVRV,inactive
22,KGFRAVCWICIYRDEY,-0.533 ± 0.84
23,RAFHYNSCKSVSAVLDLNVL,-0.094 ± 0.31

row,Substance,amyloid nucleation score
1,IVWTVFNALQPLGNALRVSV,inactive
2,VQKSMR,inactive
3,FICFFGYS,inactive
4,TKGNCSAHPRRL,-0.581 ± 1.4
5,RNFMSFRWPVLKLQRRVP,inactive
6,FFWLMDAPHPRRHVDERQLI,inactive
7,WTDNSVFLTVVINDIRTSTS,2.56 ± 0.062
8,LLMLCRCKPYFFGFYLCWFR,inactive
9,DLDFFGGCLFFHQGTIFYDG,inactive
10,IAHISLQNIVDVMGPNRSMY,1.44 ± 0.14
11,MCPPVSGNG,inactive
12,NVRSNFLVADVVVFVRKIVR,2.42 ± 0.072
13,WSNSCYEC,inactive
14,PLSLDFVDVARFSGRTGCWF,inactive
15,NIGYSLWRHYTNSRG,inactive
16,YLGIFWRFFLRFSRGVTVWL,-0.488 ± 0.96
17,CSMLASMWTTIRYLLLLEVA,1.49 ± 0.09
18,ISLFGIMWIRLLHLRHESKA,inactive
19,GMRSSLNIDAFGSGAELMHW,inactive
20,RMINVSVR,inactive
21,KRSHY,inactive
